Target: Fc-tagged human angiotensin-converting enzyme 2 (hACE2) (human) (UniProt Q9BYF1)
Experiment: BLI

Row | Substance | Kd
1 | 6× His-tagged S1 protein of SARS-CoV-2 Delta (B.1.617.2) variant (domain or fragment) | 5.03 nM
2 | 6× His-tagged S1 protein of SARS-CoV-2 Kappa (B.1.617.1) variant (domain or fragment) | 4.85 nM
3 | 6× His-tagged S1 protein of SARS-CoV-2 Omicron (B.1.1.529) variant (domain or fragment) | 7.4 nM

Source: paper PMC8828746
